Target: human CD3 on Jurkat luciferase reporter T cells (human)
Assay: cell-based or functional assay

| Binder | relative luciferase activity (fold, maximum), Jurkat luciferase reporter T cells co-cultured with dead (MTX treated) Ba/F3 cells [fold] | relative luciferase signal (fold induction), Jurkat luciferase reporter T cells co-cultured with live (untreated) Ba/F3 cells [fold] | also measured |
| --- | --- | --- | --- |
| TR01H113-mF18/TR01L0011-mk1 (anti-CD3) (antibody, mouse IgG1, kappa) heavy: QVQLVESGGGVVQPGGSLRLSCAASGFTFSNAWMHWVRQAPGKGLEWVAQIKDKSQNYATYVAESVKGRFTISRADSKNSIYLQMNSLKTEDTAVYYCRYVHYAAGYGVDIWGQGTTVTVSSAKTTPPSVYPLAPGSAAQTNSMVTLGCLVKGYFPEPVTVTWNSGSLSSGVHTFPAVLQSDLYTLSSSVTVPSSTWPSETVTCNVAHPASSTKVDKKIVPRDCGCKPCICTVKEVSKVFIFPPKPKDVLTITLTPKVTCVVVDISKDDPEVQFSWFVDDVEVHTAQTQPREEQFNSTFRSVSELPIMHQDWLNGKEFKCRVNSAAFPAPIEKTISKTKGRPKAPQVYTIPPPKEQMAKDKVSLTCMITDFFPEDITVEWQWNGQPAENYKNTQPIMDTDGSYFVYSKLNVQKSNWEAGNTFTCSVLHEGLHNHHTEKSLSHSPGK light: DIVMTQSPLSLPVTPGEPASISCRSSQPLVHSNRNTYLHWYQQKPGQAPRLLIYKVSNRFSGVPDRFSGSGSGTDFTLKISRVEAEDVGVYYCGQGTQVPYTFGQGTKLEIKRADAAPTVSIFPPSSEQLTSGGASVVCFLNNFYPKDINVKWKIDGSERQNGVLNSWTDQDSKDSTYSMSSTLTLTKDEYERHNSYTCEATHKTSTSPIVKSFNRNEC |  |  | relative fold induction of luciferase, Jurkat luciferase reporter T cells co-cultured with dead (MTX treated) Ba/F3 cells: ~20 fold; relative luciferase signal (fold induction, maximum), Jurkat luciferase reporter T cells co-cultured with live (untreated) Ba/F3 cells: ~22 fold |
| TR01H113-mF18.G3S2.mC9ECD57/TR01L0011-mk1 (anti-CD3-Clec9A ECD) (antibody, mouse IgG1, kappa) heavy: QVQLVESGGGVVQPGGSLRLSCAASGFTFSNAWMHWVRQAPGKGLEWVAQIKDKSQNYATYVAESVKGRFTISRADSKNSIYLQMNSLKTEDTAVYYCRYVHYAAGYGVDIWGQGTTVTVSSAKTTPPSVYPLAPGSAAQTNSMVTLGCLVKGYFPEPVTVTWNSGSLSSGVHTFPAVLQSDLYTLSSSVTVPSSTWPSETVTCNVAHPASSTKVDKKIVPRDCGCKPCICTVKEVSKVFIFPPKPKDVLTITLTPKVTCVVVDISKDDPEVQFSWFVDDVEVHTAQTQPREEQFNSTFRSVSELPIMHQDWLNGKEFKCRVNSAAFPAPIEKTISKTKGRPKAPQVYTIPPPKEQMAKDKVSLTCMITDFFPEDITVEWQWNGQPAENYKNTQPIMDTDGSYFVYSKLNVQKSNWEAGNTFTCSVLHEGLHNHHTEKSLSHSPGKGGGSGGGSKFFQVSSLVLEQQERLIQQDTALVNLTQWQRKYTLEYCQALLQRSLHSGTDASTGPVLLTSPQMVPQTLDSKETGSDCSPCPHNWIQNGKSCYYVFERWEMWNISKKSCLKEGASLFQIDSKEEMEFISSIGKLKGGNKYWVGVFQDGISGSWFWEDGSSPLSDLLPAERQRSAGQICGYLKDSTLISDKCDSWKYFICEKKAFGSCI light: DIVMTQSPLSLPVTPGEPASISCRSSQPLVHSNRNTYLHWYQQKPGQAPRLLIYKVSNRFSGVPDRFSGSGSGTDFTLKISRVEAEDVGVYYCGQGTQVPYTFGQGTKLEIKRADAAPTVSIFPPSSEQLTSGGASVVCFLNNFYPKDINVKWKIDGSERQNGVLNSWTDQDSKDSTYSMSSTLTLTKDEYERHNSYTCEATHKTSTSPIVKSFNRNEC | ~54 | ~5 |  |
| TR01H113-mF18.G3S2.mC9.131/TR01L0011-mk1 (anti-CD3-Clec9A CTLD) (antibody, mouse IgG1, kappa) heavy: QVQLVESGGGVVQPGGSLRLSCAASGFTFSNAWMHWVRQAPGKGLEWVAQIKDKSQNYATYVAESVKGRFTISRADSKNSIYLQMNSLKTEDTAVYYCRYVHYAAGYGVDIWGQGTTVTVSSAKTTPPSVYPLAPGSAAQTNSMVTLGCLVKGYFPEPVTVTWNSGSLSSGVHTFPAVLQSDLYTLSSSVTVPSSTWPSETVTCNVAHPASSTKVDKKIVPRDCGCKPCICTVKEVSKVFIFPPKPKDVLTITLTPKVTCVVVDISKDDPEVQFSWFVDDVEVHTAQTQPREEQFNSTFRSVSELPIMHQDWLNGKEFKCRVNSAAFPAPIEKTISKTKGRPKAPQVYTIPPPKEQMAKDKVSLTCMITDFFPEDITVEWQWNGQPAENYKNTQPIMDTDGSYFVYSKLNVQKSNWEAGNTFTCSVLHEGLHNHHTEKSLSHSPGKGGGSGGGSGSDCSPCPHNWIQNGKSCYYVFERWEMWNISKKSCLKEGASLFQIDSKEEMEFISSIGKLKGGNKYWVGVFQDGISGSWFWEDGSSPLSDLLPAERQRSAGQICGYLKDSTLISDKCDSWKYFICEKKAFGSCI light: DIVMTQSPLSLPVTPGEPASISCRSSQPLVHSNRNTYLHWYQQKPGQAPRLLIYKVSNRFSGVPDRFSGSGSGTDFTLKISRVEAEDVGVYYCGQGTQVPYTFGQGTKLEIKRADAAPTVSIFPPSSEQLTSGGASVVCFLNNFYPKDINVKWKIDGSERQNGVLNSWTDQDSKDSTYSMSSTLTLTKDEYERHNSYTCEATHKTSTSPIVKSFNRNEC | ~46 | ~5 |  |
| TX_3G4VH-mBS1001b/3G4VL-mk1//TR01H113-mBS1001a/TR01L0011-mk1 (anti-PS(3G4)//CD3) (bispecific antibody, mouse IgG1, kappa) heavy 1: EVQLQQSGPELEKPGASVKLSCKASGYSFTGYNMNWVKQSHGKSLEWIGHIDPYYGDTSYNQKFRGKATLTVDKSSSTAYMQLKSLTSEDSAVYYCVKGGYYGHWYFDVWGAGTTVTVSSAKTTPPSVYPLAPGSAAQTNSMVTLGCLVKGYFPEPVTVTWNSGSLSSGVHTFPAVLQSDLYTLSSSVTVPSSTWPSETVTCNVAHPASSTKVDKKIVPRDCGCKPCICTVKEVSKVFIFPPKPKDVLTITLTPKVTCVVVDISKDDPEVQFSWFVDDVEVHTAQTQPREEQFNSTFRSVSELPIMHQDWLNGKEFKCRVNSAAFPAPIEKTISKTKGRPKAPQVYTIPPPKEQMAKDKVSLTCMITDFFPEDITVEWQWNGQPAENYKNTQPIMRTDGSYFVYSKLNVQKSNWEAGNTFTCSVLHEGLHNHHTEKSLSHSPGK light 1: DIQMTQSPSSLSASLGERVSLTCRASQDIGSSLNWLQQGPDGTIKRLIYATSSLDSGVPKRFSGSRSGSDYSLTISSLESEDFVDYYCLQYVSSPPTFGAGTKLELKRADAAPTVSIFPPSSEQLTSGGASVVCFLNNFYPKDINVKWKIDGSERQNGVLNSWTDQDSKDSTYSMSSTLTLTKDEYERHNSYTCEATHKTSTSPIVKSFNRNEC heavy 2: QVQLVESGGGVVQPGGSLRLSCAASGFTFSNAWMHWVRQAPGKGLEWVAQIKDKSQNYATYVAESVKGRFTISRADSKNSIYLQMNSLKTEDTAVYYCRYVHYAAGYGVDIWGQGTTVTVSSAKTTPPSVYPLAPGSAAQTNSMVTLGCLVKGYFPEPVTVTWNSGSLSSGVHTFPAVLQSDLYTLSSSVTVPSSTWPSETVTCNVAHPASSTKVDKKIVPRDCGCKPCICTVKEVSKVFIFPPKPKDVLTITLTPKVTCVVVDISKDDPEVQFSWFVDDVEVHTAQTQPREEQFNSTFRSVSELPIMHQDWLNGKEFKCRVNSAAFPAPIEKTISKTKGRPKAPQVYTIPPPKEQMAKDKVSLTCMITDFFPEDITVEWQWNGQPAENYKNTQPIMDTDGSYFVYSELNVQKSNWEAGNTFTCSVLHEGLHNHHTEKSLSHSPGK light 2: DIVMTQSPLSLPVTPGEPASISCRSSQPLVHSNRNTYLHWYQQKPGQAPRLLIYKVSNRFSGVPDRFSGSGSGTDFTLKISRVEAEDVGVYYCGQGTQVPYTFGQGTKLEIKRADAAPTVSIFPPSSEQLTSGGASVVCFLNNFYPKDINVKWKIDGSERQNGVLNSWTDQDSKDSTYSMSSTLTLTKDEYERHNSYTCEATHKTSTSPIVKSFNRNEC |  |  | luciferase signal (fold induction) at 5 nM antibody, Jurkat reporter T cells co-cultured with dead Ba/F3 cells: 16 fold; luciferase signal (fold induction) at 25 nM antibody, Jurkat reporter T cells co-cultured with dead Ba/F3 cells: 70 fold |
